This assay concerns the target T1, Human CTLA4 Fc chimeric protein (human, UniProt P16410 37-162, limits assumed).
T1 construct: Bought from R&D Systems; Used at about 20 ug/ml; also called recombinant CTLA4 protein; not shown: human IgG Fc (detected with mouse anti human IgG Fc FITC)
T1 sequence (looked up): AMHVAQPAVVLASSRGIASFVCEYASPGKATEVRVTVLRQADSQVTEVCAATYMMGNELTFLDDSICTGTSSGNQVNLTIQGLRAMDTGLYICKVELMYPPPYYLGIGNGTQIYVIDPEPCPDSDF
Kind of assay: flow cytometry on L cell transfectants. As to the method: Recombinant cells L-pCMV-nFeB7-2₉₉₉, and L-pCMV-nFeB7-1₈₇₉, produced as described in Example 8, were tested for surface expression of feline B7-1 or B7-2 by determining if human CTLA4 will bind. Briefly, 1×10⁵ (per condition) L-pCMV-nFeB7-2₉₉₉ or L-pCMV-nFeB7-1₈₇₉ cells or, as a negative control, L cells transfected with the empty pCMV vector and the PMLBKTK plasmid (L-CMV) were incubated in phosphate buffered saline (PBS) containing 30% fetal bovine serum (FBS) for about 30 min on ice. The cells were then spun down and treated with the following:
Human CTLA4 Fc chimeric protein, available from R&D systems, Minneapolis, Minn., was used at about 20 μg/ml. Mouse anti human IgG Fe FITC, available from Sigma, was used at about 65 μg/ml. These reagents were diluted in PBS/5% FBS. All incubations were performed in about 100 μl for about 1 hr on ice with 3 washes of PBS/5% FBS in between each incubation. Cells were then analyzed on a flow cytometer (MoFlow Desk Top System, Cytomation, Ft Collins, Colo.) with the fluorescein gate set at 10¹.
(In general: A flow cytometer gives signals particle by particle.)

B1: feline B7-2 protein expressed on L-pCMV-nFeB7-2999 recombinant L cells (PFeB7-2332) (ligand)
chain: VSSMKSQAYFNKTGELPCHFTNSQNISLDELVVFWQDQDKLVLYEIFRGKENPQNVHLKYKGRTSFDKDNWTLRLHNVQIKDKGTYHCFIHYKGPKGLVPMHQMSSDLSVLANFSQPEITVTSNRTENSGIINLTCSSIQGYPEPKEMYFQLNTENSTTKYDTVMKKSQNNVTELYNVSISLPFSVPEAHNVSVFCALKLETLEMLLSLPFNIDAQPKDKDPEQGHFLWIAAVLVMFVVFCGMVSFKTLRKRKKKQPGPSHECETIKRERKESKQTNERVPYHVPERSDEAQCINILKTASGDKSTTHF
notes: also called PFeB7-2309 (mature)
In the case of B1, the binding result is listed as “binds”.

The values above are taken from patent US20040157296A1 (HESKA, published 2004).
